This passage reports amyloid nucleation score results from the supplement of paper PMC12042874.

± gives the uncertainty stated by the source.

This series in a line: amyloid nucleation score (Sup35N fusion, yeast selection) (log enrichment); library NNK2; higher = more nucleation; inactive = no reads after selection. In short, it runs like this:
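Psi-negative yeast expressed Sup35N fused to peptides of 20 random codons. They were induced 24 hours with 100 μM copper sulfate, grown 7 days at 30°C without adenine and uracil, and their plasmid inserts from input and output were Illumina-sequenced. The nucleation score is the DiMSum log enrichment of output over input reads, centred on the mode score of non-aggregating sequences. Sequences with under 100 input reads were excluded.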

On to TCVVIQGIRGWGWMSVSFMP, for which the amyloid nucleation score is -0.829 ± 0.63. For PSDMHSNNLA, the amyloid nucleation score is -0.774 ± 0.76.

In the case of VDRKWRKT, the amyloid nucleation score is -0.373 ± 1.

GTRDHGELGLLFTTTLLFVE showed an amyloid nucleation score of 1.39 ± 0.13.

As for ASITIHSFKMRTYTRAITRE, the amyloid nucleation score worked out at 3.92 ± 0.064. Consider SYSMLIMFFFVIKYRSDFQL, for which the amyloid nucleation score entry is “inactive”. Substance CCFTGIKGSYCFSWLACG showed an amyloid nucleation score of -0.082 ± 0.3.

Turning to PREKLYITMNMADIGSSRHP, the amyloid nucleation score was 4.86 ± 0.051. LFMRPCDLFEVVLSTVRLVW had an amyloid nucleation score of 1.29 ± 0.52. Substance CMFSLNGAYSMPHVKMSMCM displayed an amyloid nucleation score of -0.786 ± 0.46. In the case of VTAAVNCFVNKAQLCTCLFM it was 9.097 ± 0.052. Consider MLGRKHSWVA, for which the amyloid nucleation score is 1.67 ± 0.33. The substance CDQYHSQPWMLKTQIRLMTA returned an amyloid nucleation score of 1.27 ± 0.3.

DIVRSYV registered an amyloid nucleation score of -0.27 ± 0.45. GKLLLFSSWGRA: the amyloid nucleation score came out at 0.083 ± 0.44. Substance VRYMLRTLEYMSRVGCSISH registered an amyloid nucleation score of 0.101 ± 0.76. LIMYGTKLSRLVMLLYYWTW displayed an amyloid nucleation score of 0.031 ± 0.34. Regarding FLVENCC, the amyloid nucleation score is -0.39 ± 0.64. As to LHNMNWPLFVLVACLVDIPT, the amyloid nucleation score was -0.724 ± 0.42. Regarding FTTMESDGMVFGL, the amyloid nucleation score came out at 3.75 ± 0.061. IVNTELVLVDKLDSCIVRYN: the amyloid nucleation score was found to be 3.02 ± 0.17.

ISFWGFYRFRYDMCRRVSDR came in with an amyloid nucleation score of -1.34 ± 0.78. In the case of TLGTIPIWTEIRPEYNSPLM it was 0.371 ± 0.51; in that of LVQYMTMRCVFSNIGGMTSG, 0.263 ± 0.64. As for LRVVSES, the amyloid nucleation score was -0.599 ± 0.35. SFKHLT: the amyloid nucleation score was -0.853 ± 1.1. The result for FPIVFTTKCDIFLSYSLLPS reads 1.7 ± 0.13.

Substance LFRLSCIALCVGIIIVSDGV showed an amyloid nucleation score of -0.33 ± 0.79. For SQPSDWVYFNVGYCCVLMCL, the amyloid nucleation score is 9.398 ± 0.027.

For NTQDFGLCYIFFLQDRCN, the amyloid nucleation score is -0.117 ± 0.49.

As to SLSDELAERNSRCTRLTPWM, the amyloid nucleation score was 1.61 ± 0.23. As to CRSCVVSYCGCEYLESLGGK, the amyloid nucleation score is 0.525 ± 0.64. For TGAVKLTSAAIINCTYHARM, the amyloid nucleation score result was “inactive”. The result for CKLISFIRYPPPAYVVSRER reads 2.33 ± 0.13.

In turn, VTRFLISYTRIGRMYSVGFV gave an amyloid nucleation score of -0.523 ± 1. The result for TEVGCYFYTWRICIYNDTRA reads 2.28 ± 0.11. Regarding TVNLVFSTRG, the amyloid nucleation score was 4.64 ± 0.059. The substance FKNRGLLICFEEEHLCAKRR displayed an amyloid nucleation score of -1.05 ± 0.78.

With LVSLLFFGSVSLAKCQWN, the amyloid nucleation score was -0.526 ± 0.79.

Turning to MSMYDAAIEFLLRCGYVRSY, the amyloid nucleation score was 0.328 ± 0.34.

The substance RVGCLWFRLYPLYSGFMRSR displayed an amyloid nucleation score of -1.08 ± 1. Turning to GVTFNADASTFRDACMARLG, the amyloid nucleation score is 0.752 ± 0.48. As to FWLSSESANYTCFKRYVG, the amyloid nucleation score was determined as 0.25 ± 0.47. The result for QWVIKFIHRQIVVPFKFAGI reads -0.385 ± 0.8; that for FFGLVNWVGLGVHRSMTFAK, -0.609 ± 0.41.

Substance NAIYLVRMDYS yielded an amyloid nucleation score of 0.138 ± 0.23.

RGRTGRCSAFSQSILNGLRA showed an amyloid nucleation score of -0.181 ± 0.63.

The substance TCLMDGSTCTRFGGPLEPMC gave an amyloid nucleation score of 0.028 ± 0.79.

In turn, LLVKRCSAKPNLRRLLKLMC yielded an amyloid nucleation score of -0.097 ± 0.76. The result for LQTFMNVGVFSGDKEYPCVF reads 0.662 ± 0.66; that for RESYMLSYGKILNACQCIVG, 9.12 ± 0.079; that for PIRWVGHNKGFQGL, -1.22 ± 0.75.

PGYGPLTMGGS gave an amyloid nucleation score of 1.35 ± 0.24. The substance VRSWTGPSEVQNCKSEFSGA yielded an amyloid nucleation score of 0.731 ± 0.28. Regarding SGLEEYLSHLMLQVRFQESR, the amyloid nucleation score is 0.432 ± 0.57.

RTVQQIAPVGGHERVKC registered an amyloid nucleation score of -0.175 ± 0.26. DVNISASNEVALIASDRLLC: the amyloid nucleation score was -0.149 ± 0.55. Substance IIHSLARFIC displayed an amyloid nucleation score of -0.594 ± 0.26. Substance PQLHSLCT had an amyloid nucleation score of -0.214 ± 1. For the substance GKIRIENGLRGSLGDIRHNI, the amyloid nucleation score is -0.623 ± 1. RMFDYDSGGNNRICYDYYAN returned an amyloid nucleation score of -1.69 ± 0.61. As to LFFYTYWC, the amyloid nucleation score entry was “inactive”. As for LFSLTGIKLE, the amyloid nucleation score is -0.483 ± 1.1. Regarding PKMRFFPIARSSIRERNVWV, the amyloid nucleation score is -1.31 ± 0.34.

As for DLSISSLGFQNIVLSHDNGY, the amyloid nucleation score is -1.13 ± 1.1. Regarding VCCVP, the amyloid nucleation score is -1.09 ± 1.1.

Turning to TYDSYRVIYISY, the amyloid nucleation score is -0.372 ± 0.61. Take VNYRNLMKESLCILRQTYTL: the amyloid nucleation score amounted to 0.031 ± 0.65. In the case of LFSSQLTATVRVPMSRNGLW, the amyloid nucleation score was determined as 7.088 ± 0.031. The result for KKKDSAKLLVTE reads -0.409 ± 0.76; that for HLTEFNNRRRLGTDLAGVGN, 0.109 ± 0.33. In the case of SIGLLTGKWLPSLMVLYLLV it was 1.29 ± 0.44; in that of KCSSCEF, 0.768 ± 0.47. Take SLFITASYYNFRG: the amyloid nucleation score was 3.62 ± 0.049.

HLFACSTYKSSHRVQVCTVI: the amyloid nucleation score was -0.497 ± 1. Regarding TTLMWVWFIGFWP, the amyloid nucleation score is 6.139 ± 0.04. For NRHRWLYLRMRLYRYLEGVR, the amyloid nucleation score was 1.18 ± 0.47. As for ESTLDC, the amyloid nucleation score was found to be 0.343 ± 0.41. CPCYCLTSFACLGNSVPTWR came in with an amyloid nucleation score of 10.15 ± 0.043.

The substance LVLYVSKMPYMSEPRSIILR gave an amyloid nucleation score of 0.64 ± 0.58.

As to VFFVHSYND, the amyloid nucleation score result was “inactive”. Take VHNCCTVVSLRREDESVYTN: the amyloid nucleation score was -0.146 ± 0.38.

Take LNTVYCN: the amyloid nucleation score is -1.09 ± 0.47. Regarding LRFKNVWWPYGDYECATIIT, the amyloid nucleation score was -0.468 ± 0.41. As to GFMKPSRYLNMVKFNCRLRS, the amyloid nucleation score result was “inactive”. On to FFYSGRGYTDKWHMGSLPRC, for which the amyloid nucleation score was -0.964 ± 0.76. As to KSSSAVIW, the amyloid nucleation score was -0.045 ± 0.53.

On to NLISKDIVLHWSRALC, for which the amyloid nucleation score was determined as 0.339 ± 0.56. The result for LHAIHSFDWPTSLIVYHP reads “inactive”; that for CVMNF, -0.586 ± 0.42; that for ASVCHTLVGILYDDEGARTR, 0.85 ± 0.4.

As for RELYYRMAVLNQSTTTLYRG, the amyloid nucleation score result is “inactive”. In turn, SSRHNPIWLRTAMDGDLGFA yielded an amyloid nucleation score of 0.864 ± 0.5.

For the substance PLVEDLRSIYLVRCSAYLQR, the amyloid nucleation score was determined as 0.593 ± 0.33. As for HVNGL, the amyloid nucleation score was 0.098 ± 0.5.

Consider IPFLAVACLGDQWDD, for which the amyloid nucleation score was found to be 0.304 ± 0.18.

With FAFYRSFCWRVTWFSWVGGS, the amyloid nucleation score result is “inactive”. Regarding SLGTFVRHTEWSSKNEAFPV, the amyloid nucleation score result is “inactive”. In turn, KLGYHLSMIFVFRNVVCPYI registered an amyloid nucleation score of -0.711 ± 1.1. Substance QSNVCKIGSGVDESGNNMTL yielded an amyloid nucleation score of 0.532 ± 0.37. The substance GSCSKCNWCINKTAQGFVLS came in with an amyloid nucleation score of -0.062 ± 0.45.

Substance TWHSIWREYSGTFTHTYWTD registered an amyloid nucleation score of 0.555 ± 0.62. Substance TAVCKISPQQWAGCHLIHRH registered an amyloid nucleation score of 5.3 ± 0.095. The substance EKVNLSTSCRVA had an amyloid nucleation score of 0.664 ± 0.34. With LLPMGYAYISYSLLGNYMSG, the amyloid nucleation score is -1.37 ± 0.48. In the case of IFVNILNWLSVVRSSGFGSV it was “inactive”. Take YSNSGVTWLRMHNVMFCGEG: the amyloid nucleation score is -0.122 ± 0.32.

KISFVALAVDARYGWCLFHY showed an amyloid nucleation score of 0.358 ± 0.24.

For QARYFFTAARYITVLWKSTF, the amyloid nucleation score is -0.487 ± 0.56. For TSGWNAERMFEHINGQFVFL, the amyloid nucleation score was -0.195 ± 0.49. In the case of IWSQW it was -0.134 ± 1.1; in that of VRSVLVRKGTWARCTRMVAM, 1.05 ± 0.56; in that of SKVNVVVDNMG, -0.125 ± 0.39. The result for VMFYRRYYFKSMANLVDTFR reads -0.932 ± 0.48; that for TRTLRDGVHVGEPLAVYWCC, 9.477 ± 0.028; that for GPFNNRRGQFYSVCIYFLLR, “inactive”. Take NFNVQKIFNGDCDLVWRGFV: the amyloid nucleation score is -1.31 ± 0.76. As for RLYHPSQWGDLILCIFVMEA, the amyloid nucleation score is -0.343 ± 0.62. On to TTHCRLYMYVWWMYVVIFFD, for which the amyloid nucleation score was 2.11 ± 0.16. In the case of SCFGNVYGGVVLQAFGGVVS it was 0.082 ± 1.1; in that of RVPSSHF, 1 ± 0.47. In the case of ALGYSRLTEYGLDRMVQTAC it was 0.908 ± 0.52; in that of MFVVKNRGCVM, -0.16 ± 0.3; in that of KSCYIAV, -0.066 ± 0.45. Regarding SILFNVARGCAGVPNLKSYS, the amyloid nucleation score was -0.43 ± 0.56. PARAKRLTAL showed an amyloid nucleation score of -0.207 ± 0.29. Regarding SQLYE, the amyloid nucleation score was 1.23 ± 0.44. Substance FFIESSMLWYWDLKRYPMTL showed an amyloid nucleation score of -0.225 ± 0.54. RARPC: the amyloid nucleation score entry was “inactive”. Turning to RQYCIKDSWGSSGQLSVGLR, the amyloid nucleation score was 2.1 ± 0.17. VLRGPS displayed an amyloid nucleation score of 0.302 ± 0.56.

With RSGAVQWRQRMGCMPSVCDR, the amyloid nucleation score was 1.46 ± 0.26. PAYLDPCTSFSVILAMVLLW: the amyloid nucleation score came out at 0.697 ± 0.55. With FYLNRKRVYLSDGCRAFR, the amyloid nucleation score turned out to be 0.252 ± 0.51. As for RYLNWRVCSNRLPGSEGLWA, the amyloid nucleation score is 0.323 ± 0.32. As to YSSSVMPRRSDRVRT, the amyloid nucleation score turned out to be 0.139 ± 0.63.

MLYSWKFPEVASGNLKCRLE showed an amyloid nucleation score of -0.24 ± 0.32. In the case of ACSQLSYWTFHSPWP it was 4.07 ± 0.072; in that of CRLPQQKPHEMPTLDDFARS, 0.553 ± 0.44.
